Experimental data as given in IntAct's records for PubMed 20581824.

Each substance was assayed against nr1d1_human NR1D1 (UniProt P20393).
Sequence of nr1d1_human NR1D1 (P20393 whole entry): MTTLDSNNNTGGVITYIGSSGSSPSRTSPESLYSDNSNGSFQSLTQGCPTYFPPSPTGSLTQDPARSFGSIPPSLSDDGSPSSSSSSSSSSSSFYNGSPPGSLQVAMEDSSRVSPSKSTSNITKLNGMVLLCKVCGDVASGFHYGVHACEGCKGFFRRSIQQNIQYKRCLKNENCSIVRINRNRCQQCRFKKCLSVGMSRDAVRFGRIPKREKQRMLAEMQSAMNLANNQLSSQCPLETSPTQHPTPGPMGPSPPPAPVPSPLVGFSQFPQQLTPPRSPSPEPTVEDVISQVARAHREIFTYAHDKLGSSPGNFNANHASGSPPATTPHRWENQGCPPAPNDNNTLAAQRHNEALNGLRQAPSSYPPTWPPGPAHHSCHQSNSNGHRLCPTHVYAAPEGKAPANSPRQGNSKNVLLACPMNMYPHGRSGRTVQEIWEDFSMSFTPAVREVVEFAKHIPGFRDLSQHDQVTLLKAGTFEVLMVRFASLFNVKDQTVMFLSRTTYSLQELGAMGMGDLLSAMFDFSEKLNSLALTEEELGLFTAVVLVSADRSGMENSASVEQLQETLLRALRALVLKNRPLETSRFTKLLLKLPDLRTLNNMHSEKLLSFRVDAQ

Substance | effect of a mutation on the interaction
Nuclear receptor corepressor 1 (Homo sapiens), O75376 H2046A | decreasing interaction
Nuclear receptor corepressor 1 (Homo sapiens), O75376 L2048A | decreasing interaction
Nuclear receptor corepressor 1 (Homo sapiens), O75376 H2054A | disrupting interaction
Nuclear receptor corepressor 1 (Homo sapiens), O75376 L2051A | decreasing interaction

Target: nr1d1_human NR1D1 (UniProt P20393)
Remark: another data set of the same source

Substance | effect of a mutation on the interaction
Nuclear receptor corepressor 1 (Homo sapiens), O75376 I2059A | disrupting interaction
Nuclear receptor corepressor 1 (Homo sapiens), O75376 I2058A | disrupting interaction
Nuclear receptor corepressor 1 (Homo sapiens), O75376 I2058A;I2059A | disrupting interaction
Nuclear receptor corepressor 1 (Homo sapiens), O75376 I2055A | disrupting interaction
